In assay [1] the target is P18-I10/H2-D^d, BirA-tagged and biotinylated (mouse | not stated). Briefly: SPR. A general note: In SPR one partner is held on a chip, and binding of the other changes the refractive index at the surface.
The target of assay [2] is P18-I10/H2-D^d (peptide-loaded MHC class I with β2m) (mouse | not stated). Briefly: AUC.

Take “B4.2.3 TCR, soluble disulfide-linked αβ heterodimer (extracellular portions)”: in assay [1], the Kd turned out to be 540 nM. In assay [2], this substance had a Kd of 230 nM and a stoichiometry N of 1.

As usually defined, the Kd is the constant that tells how readily two partners part at equilibrium. What is called stoichiometry N is a count of units in the complex or per binding partner.

(Values after paper PMC5440810.)
